The values below come from patent US10087225B2, “Formulation of MK2 inhibitor peptides” (MOERAE MATRIX, INC., priority 2015, dated 2018).

In one data set the target is JNK1α1(h) (Homo sapiens, UniProt P45983). As to the kind of experiment: Kinase Profiling Assay. Type of data set: biochemical.
The conditions of data set [1]: human, HCAVSMCs, 10 μM, intracellular half-life (t1/2), fluorescence 0 and 5 days after treatment removal.
Method: HCAVSMCs were grown to 80-90% confluence, harvested, and seeded at 20,000 cells/well in a 24 well plate and allowed to adhere overnight in low serum media (DMEM, 1% FBS, and 1% P/S). […] Following treatment, cells were washed with PBS −/−, washed with CellScrub buffer (Genlantis) for 10 minutes at room temperature to remove extracellular polyplexes and/or peptide, washed 2× in PBS −/−, and given fresh complete growth media. Cells were then incubated for an additional 0, 12, 24, 72, or 120 hours. Cells were then washed with PBS −/−, trypsinized, and resuspended in 0.1% Trypan blue in PBS (−/−) for analysis on a FACSCalibur flow cytometer (Becton Dickinson) with BD CellQuest™ Pro software (V 5.2). Data was exported and analyzed with FlowJo software (V 7.6.4). All samples were run in triplicate.
For another data set, the target named is Ab1(M351T)(h) (Homo sapiens, UniProt P00519, M351T). Nature of the data set: Kinase Profiling Assay. The class given is biochemical. Conditions: 100 μM.
In another data set the target is CDK1/cyclinB(h) (Homo sapiens, UniProt P06493). Nature of the data set: Kinase Profiling Assay. The class given is biochemical. The note with it: 100 μM.
The target of a further data set is CDK2/cyclinA(h) (Homo sapiens, UniProt P24941). As to the kind of experiment: Kinase Profiling Assay. Type of data set: biochemical. Conditions: 100 μM.
The next data set addresses c-RAF(h) (Homo sapiens, UniProt P04049). Nature of the data set: Kinase Profiling Assay. The class given is biochemical. The note with it: 100 μM.
The target in the next data set is eEF-2K(h) (Homo sapiens, UniProt O00418). As to the kind of experiment: Kinase Profiling Assay. Type of data set: biochemical. Conditions: 100 μM.
The next data set deals with T1, EphB3(h) (Homo sapiens, UniProt P54753).
T1 sequence (P54753 34-998): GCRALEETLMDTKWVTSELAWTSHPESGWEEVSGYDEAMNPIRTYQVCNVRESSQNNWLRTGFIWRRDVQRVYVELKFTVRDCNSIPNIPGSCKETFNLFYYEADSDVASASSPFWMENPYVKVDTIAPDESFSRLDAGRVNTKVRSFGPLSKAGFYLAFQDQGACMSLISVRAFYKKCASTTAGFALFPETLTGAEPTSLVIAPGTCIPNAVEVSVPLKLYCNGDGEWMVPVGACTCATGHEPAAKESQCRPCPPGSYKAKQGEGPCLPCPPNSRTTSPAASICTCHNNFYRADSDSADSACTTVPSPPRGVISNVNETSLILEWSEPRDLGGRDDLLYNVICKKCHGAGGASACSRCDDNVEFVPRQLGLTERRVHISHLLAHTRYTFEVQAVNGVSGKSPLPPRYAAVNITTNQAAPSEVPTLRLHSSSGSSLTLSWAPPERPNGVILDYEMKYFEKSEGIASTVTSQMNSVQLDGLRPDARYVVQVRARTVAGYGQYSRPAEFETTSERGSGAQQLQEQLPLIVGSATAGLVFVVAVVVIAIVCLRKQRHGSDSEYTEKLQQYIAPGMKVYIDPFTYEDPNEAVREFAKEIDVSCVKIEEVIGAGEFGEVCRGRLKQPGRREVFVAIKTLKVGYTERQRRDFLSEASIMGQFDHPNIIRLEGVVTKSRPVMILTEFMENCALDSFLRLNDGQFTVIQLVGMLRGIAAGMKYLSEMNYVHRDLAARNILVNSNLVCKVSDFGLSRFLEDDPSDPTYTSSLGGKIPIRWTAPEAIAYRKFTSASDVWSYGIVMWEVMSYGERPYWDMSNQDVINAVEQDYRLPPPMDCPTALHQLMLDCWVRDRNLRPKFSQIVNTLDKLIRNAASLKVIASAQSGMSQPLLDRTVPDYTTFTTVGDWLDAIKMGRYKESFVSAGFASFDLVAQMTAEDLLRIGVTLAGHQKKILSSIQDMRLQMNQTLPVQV
As to the kind of experiment: Kinase Profiling Assay. The class given is biochemical. The note with it: 100 μM.

Another data set has as its target Fes(h) (Homo sapiens, UniProt P07332). Nature of the data set: Kinase Profiling Assay. The class given is biochemical. Conditions: 100 μM.
For another data set, the target named is IRAK1(h) (Homo sapiens, UniProt P51617). Nature of the data set: Kinase Profiling Assay. Type of data set: biochemical. The note with it: 100 μM.
For another data set, the target named is Lck(h) (Homo sapiens, UniProt P06239). As to the kind of experiment: Kinase Profiling Assay. The class given is biochemical. Conditions: 100 μM.
The target in a further data set is MARK1(h) (Homo sapiens, UniProt Q9P0L2). Nature of the data set: Kinase Profiling Assay. The note with it: 100 μM. Type of data set: biochemical.
The test system of a further data set is MLCK(h). As to the kind of experiment: Kinase Profiling Assay. The class given is biochemical, human. Conditions: 100 μM.
A further data set concerns the target PAR-1Bα(h) (Homo sapiens, UniProt Q7KZI7). As to the kind of experiment: Kinase Profiling Assay. The class given is biochemical. Conditions: 100 μM.
For the next data set, the target named is PDGFRβ(h) (Homo sapiens, UniProt P09619). Nature of the data set: Kinase Profiling Assay. Type of data set: biochemical. Conditions: 100 μM.
The target of a further data set is SIK(h) (Homo sapiens, UniProt P57059). As to the kind of experiment: Kinase Profiling Assay. The note with it: 100 μM. Type of data set: biochemical.
Another data set addresses CK1γ3(h) (Homo sapiens, UniProt Q9Y6M4). Nature of the data set: Kinase Profiling Assay. The class given is biochemical. The note with it: 100 μM.
For a further data set, the target named is CK2α2(h) (Homo sapiens, UniProt P19784). Nature of the data set: Kinase Profiling Assay. The class given is biochemical. Conditions: 100 μM.
The next data set deals with CLK2(h) (Homo sapiens, UniProt P49760). Nature of the data set: Kinase Profiling Assay. The class given is biochemical. The note with it: 100 μM.
Another data set has as its target PAK3(h) (Homo sapiens, UniProt O75914). Nature of the data set: Kinase Profiling Assay. The class given is biochemical. Conditions: 100 μM.
The target of a further data set is Plk1(h) (Homo sapiens, UniProt P53350). As to the kind of experiment: Kinase Profiling Assay. Type of data set: biochemical. The note with it: 100 μM.

Sequence of PDGFRβ(h) (P09619 33-1106): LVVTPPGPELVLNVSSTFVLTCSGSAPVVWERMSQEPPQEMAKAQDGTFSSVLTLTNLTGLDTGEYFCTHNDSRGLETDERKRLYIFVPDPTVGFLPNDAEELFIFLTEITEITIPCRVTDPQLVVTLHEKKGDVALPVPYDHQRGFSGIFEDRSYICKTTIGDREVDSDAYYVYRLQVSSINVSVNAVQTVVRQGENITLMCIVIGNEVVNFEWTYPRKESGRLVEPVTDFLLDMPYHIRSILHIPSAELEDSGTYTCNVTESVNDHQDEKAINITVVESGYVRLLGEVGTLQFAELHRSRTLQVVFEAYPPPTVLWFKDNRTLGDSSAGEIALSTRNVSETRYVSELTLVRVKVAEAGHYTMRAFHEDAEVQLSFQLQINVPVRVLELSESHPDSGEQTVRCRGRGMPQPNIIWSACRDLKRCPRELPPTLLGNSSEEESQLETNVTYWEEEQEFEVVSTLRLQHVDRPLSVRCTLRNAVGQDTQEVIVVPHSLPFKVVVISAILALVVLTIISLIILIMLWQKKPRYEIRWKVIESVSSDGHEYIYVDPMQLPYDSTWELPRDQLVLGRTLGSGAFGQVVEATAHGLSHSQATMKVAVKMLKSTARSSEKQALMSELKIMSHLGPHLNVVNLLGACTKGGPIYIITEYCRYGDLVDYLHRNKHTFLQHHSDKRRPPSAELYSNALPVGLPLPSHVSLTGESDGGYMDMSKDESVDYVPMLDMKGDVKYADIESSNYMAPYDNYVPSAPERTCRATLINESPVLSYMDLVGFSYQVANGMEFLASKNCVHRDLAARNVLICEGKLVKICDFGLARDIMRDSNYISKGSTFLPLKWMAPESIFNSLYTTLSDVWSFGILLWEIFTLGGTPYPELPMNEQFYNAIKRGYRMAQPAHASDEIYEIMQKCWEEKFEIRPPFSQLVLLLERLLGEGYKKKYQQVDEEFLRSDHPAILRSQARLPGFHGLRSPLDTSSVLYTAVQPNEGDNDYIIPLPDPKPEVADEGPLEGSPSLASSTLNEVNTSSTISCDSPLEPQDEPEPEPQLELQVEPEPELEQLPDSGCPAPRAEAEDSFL
Sequence of IRAK1(h) (P51617 whole entry): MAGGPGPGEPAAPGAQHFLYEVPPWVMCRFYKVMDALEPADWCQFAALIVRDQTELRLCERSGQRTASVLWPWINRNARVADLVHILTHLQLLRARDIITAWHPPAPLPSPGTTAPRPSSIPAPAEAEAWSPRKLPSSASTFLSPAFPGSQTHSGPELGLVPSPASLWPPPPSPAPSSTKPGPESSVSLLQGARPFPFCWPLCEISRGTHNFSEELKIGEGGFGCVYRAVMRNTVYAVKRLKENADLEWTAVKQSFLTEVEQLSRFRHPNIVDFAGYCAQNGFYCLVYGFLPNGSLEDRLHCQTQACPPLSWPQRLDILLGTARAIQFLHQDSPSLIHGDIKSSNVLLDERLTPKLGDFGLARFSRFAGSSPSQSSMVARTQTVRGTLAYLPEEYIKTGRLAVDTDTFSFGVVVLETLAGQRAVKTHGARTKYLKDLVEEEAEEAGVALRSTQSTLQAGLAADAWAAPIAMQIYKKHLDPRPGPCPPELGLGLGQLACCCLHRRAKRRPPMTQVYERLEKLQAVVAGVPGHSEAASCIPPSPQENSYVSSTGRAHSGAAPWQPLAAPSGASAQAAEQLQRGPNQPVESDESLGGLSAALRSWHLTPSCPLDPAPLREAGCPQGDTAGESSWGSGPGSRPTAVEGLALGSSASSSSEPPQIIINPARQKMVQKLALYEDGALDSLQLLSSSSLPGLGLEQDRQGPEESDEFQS
Sequence of Fes(h) (P07332 whole entry): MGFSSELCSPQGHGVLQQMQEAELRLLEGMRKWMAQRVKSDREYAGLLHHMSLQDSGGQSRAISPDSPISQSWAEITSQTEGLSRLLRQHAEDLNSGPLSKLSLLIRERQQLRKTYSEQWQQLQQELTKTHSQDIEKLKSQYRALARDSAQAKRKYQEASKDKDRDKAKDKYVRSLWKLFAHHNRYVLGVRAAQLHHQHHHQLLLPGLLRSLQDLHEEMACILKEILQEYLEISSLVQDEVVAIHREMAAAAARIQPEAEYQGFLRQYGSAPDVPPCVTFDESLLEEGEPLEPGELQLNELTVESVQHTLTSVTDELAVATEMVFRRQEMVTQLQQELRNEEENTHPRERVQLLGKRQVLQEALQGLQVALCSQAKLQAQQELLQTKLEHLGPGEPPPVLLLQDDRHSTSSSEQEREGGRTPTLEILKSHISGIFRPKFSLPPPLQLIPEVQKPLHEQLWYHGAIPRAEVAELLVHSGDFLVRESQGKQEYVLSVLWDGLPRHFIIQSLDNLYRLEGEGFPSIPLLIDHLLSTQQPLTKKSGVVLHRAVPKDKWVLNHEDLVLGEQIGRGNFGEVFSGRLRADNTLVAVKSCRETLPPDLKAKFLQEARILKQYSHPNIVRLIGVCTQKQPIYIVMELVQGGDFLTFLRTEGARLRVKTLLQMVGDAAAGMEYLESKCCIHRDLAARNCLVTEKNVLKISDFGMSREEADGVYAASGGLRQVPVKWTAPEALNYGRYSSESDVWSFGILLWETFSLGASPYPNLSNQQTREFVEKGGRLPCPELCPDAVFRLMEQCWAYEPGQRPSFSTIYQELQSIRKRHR
Sequence of PAR-1Bα(h) (Q7KZI7 1-725 isoform Q7KZI7-4): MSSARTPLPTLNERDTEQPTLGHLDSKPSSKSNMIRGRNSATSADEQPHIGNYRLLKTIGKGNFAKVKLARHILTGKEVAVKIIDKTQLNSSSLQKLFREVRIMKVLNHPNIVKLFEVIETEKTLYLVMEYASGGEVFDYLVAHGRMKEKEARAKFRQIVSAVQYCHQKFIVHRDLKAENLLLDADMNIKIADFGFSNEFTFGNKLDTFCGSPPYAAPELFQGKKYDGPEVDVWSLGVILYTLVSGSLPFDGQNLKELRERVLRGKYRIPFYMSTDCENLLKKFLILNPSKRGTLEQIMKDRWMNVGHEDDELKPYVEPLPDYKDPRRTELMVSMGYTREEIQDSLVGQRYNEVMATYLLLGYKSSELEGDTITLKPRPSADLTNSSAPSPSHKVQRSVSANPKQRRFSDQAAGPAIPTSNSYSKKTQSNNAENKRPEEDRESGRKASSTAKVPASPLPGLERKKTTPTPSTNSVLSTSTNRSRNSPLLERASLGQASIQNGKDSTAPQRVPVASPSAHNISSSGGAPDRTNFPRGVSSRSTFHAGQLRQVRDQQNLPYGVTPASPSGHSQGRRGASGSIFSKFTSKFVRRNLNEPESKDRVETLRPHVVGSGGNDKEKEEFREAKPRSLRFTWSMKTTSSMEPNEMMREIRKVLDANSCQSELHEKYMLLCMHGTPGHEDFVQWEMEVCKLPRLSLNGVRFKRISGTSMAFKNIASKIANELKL
Sequence of PAK3(h) (O75914 whole entry): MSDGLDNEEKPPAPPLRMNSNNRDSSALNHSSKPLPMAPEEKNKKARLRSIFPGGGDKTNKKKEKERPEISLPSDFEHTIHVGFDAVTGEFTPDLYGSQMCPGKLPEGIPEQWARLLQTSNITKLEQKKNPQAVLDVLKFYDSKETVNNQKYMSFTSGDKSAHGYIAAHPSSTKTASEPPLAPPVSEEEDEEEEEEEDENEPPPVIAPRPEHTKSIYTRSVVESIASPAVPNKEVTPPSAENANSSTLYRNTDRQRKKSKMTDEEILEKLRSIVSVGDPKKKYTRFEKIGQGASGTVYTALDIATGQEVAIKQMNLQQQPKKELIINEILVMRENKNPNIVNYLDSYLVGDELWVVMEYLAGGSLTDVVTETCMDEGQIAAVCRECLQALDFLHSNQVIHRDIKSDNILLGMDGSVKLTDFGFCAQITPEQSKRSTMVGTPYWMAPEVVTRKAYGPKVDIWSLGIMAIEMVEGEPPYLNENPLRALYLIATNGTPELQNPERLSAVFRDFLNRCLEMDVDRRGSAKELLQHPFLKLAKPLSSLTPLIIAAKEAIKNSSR
Sequence of JNK1α1(h) (P45983 1-384 isoform P45983-2): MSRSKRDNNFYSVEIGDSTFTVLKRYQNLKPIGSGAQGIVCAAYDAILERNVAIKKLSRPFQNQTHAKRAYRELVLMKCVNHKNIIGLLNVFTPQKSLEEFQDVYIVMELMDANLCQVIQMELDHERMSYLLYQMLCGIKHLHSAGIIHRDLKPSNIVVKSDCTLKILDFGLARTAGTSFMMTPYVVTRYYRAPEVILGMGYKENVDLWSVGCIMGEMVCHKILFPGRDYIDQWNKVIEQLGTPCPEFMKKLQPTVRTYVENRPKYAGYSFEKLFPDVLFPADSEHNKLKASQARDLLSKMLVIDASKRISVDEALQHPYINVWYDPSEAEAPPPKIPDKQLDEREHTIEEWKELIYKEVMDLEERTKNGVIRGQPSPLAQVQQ
Sequence of CDK1/cyclinB(h) (P06493 whole entry): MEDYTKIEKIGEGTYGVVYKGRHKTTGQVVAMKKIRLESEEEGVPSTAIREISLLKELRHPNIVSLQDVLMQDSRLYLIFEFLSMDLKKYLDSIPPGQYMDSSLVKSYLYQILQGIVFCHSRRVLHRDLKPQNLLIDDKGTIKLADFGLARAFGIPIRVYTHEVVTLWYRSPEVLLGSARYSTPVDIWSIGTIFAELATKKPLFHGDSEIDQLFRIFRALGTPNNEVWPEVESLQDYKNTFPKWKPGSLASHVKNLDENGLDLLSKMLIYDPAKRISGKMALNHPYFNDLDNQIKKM
Sequence of CDK1/cyclinB(h) (P14635 whole entry partner): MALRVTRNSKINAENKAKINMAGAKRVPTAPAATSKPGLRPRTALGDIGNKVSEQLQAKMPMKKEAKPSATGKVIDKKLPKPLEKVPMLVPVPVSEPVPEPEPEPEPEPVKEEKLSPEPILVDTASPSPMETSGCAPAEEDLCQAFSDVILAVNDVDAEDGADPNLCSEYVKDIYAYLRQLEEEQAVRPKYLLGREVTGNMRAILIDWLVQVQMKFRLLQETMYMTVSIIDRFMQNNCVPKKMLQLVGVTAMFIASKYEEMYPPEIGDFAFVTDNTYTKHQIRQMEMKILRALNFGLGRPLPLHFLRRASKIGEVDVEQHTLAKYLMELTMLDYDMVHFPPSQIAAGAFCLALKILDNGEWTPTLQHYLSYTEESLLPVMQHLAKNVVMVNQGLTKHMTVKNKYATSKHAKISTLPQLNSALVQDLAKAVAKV

As a reminder, the half-life is the time needed for the level to fall by half in the phase considered. A higher half-life goes with slow decline. In the case of H-YARAAARQARAKALARQLGVAA-OH [MMI-0100], the activity at 100 µM on JNK1α1(h) is 91%. The same substance had a half-life in [1] of 96 h.

As for “HRRIKAWLKKIKALARQLGVAA (Mammalian) [MMI-0500]”, the “% activity” value in the data set with Ab1(M351T)(h) is 61%; with CDK1/cyclinB(h), 57%; with CDK2/cyclinA(h), 87%; with c-RAF(h), 19%; with eEF-2K(h) it was 43%; in the data set with EphB3(h) it was 79%. Moreover, the “% activity” value is 23% with Fes(h); 5% with IRAK1(h); 359% with Lck(h); 110% with MARK1(h); 0% with MLCK(h); 97% with PAR-1Bα(h). Further, the “% activity” value with PDGFRβ(h) and with SIK(h) was 40% throughout.

For “YARAAARQARAKALNRQLGVA (Mammalian) [MMI-0200]”, the “% activity” value with CK1γ3(h) amounted to 96%; with CK2α2(h), 88%; in the data set with CLK2(h), 97%; with EphB3(h) it was 128%; with Fes(h), 74%; with IRAK1(h) it was 101%. Besides, the “% activity” value with MLCK(h) is given as 103%; with PAK3(h), 50%; in the data set with PAR-1Bα(h), 110%; with PDGFRβ(h), 137%; with Plk1(h), 128%.
